# Measurements: patent publication US20110311517A1, “Antibodies and methods for treating estrogen receptor-associated diseases” (SHENOGEN PHARMA GROUP, LTD., priority 2009, published 2011)
# Marks after values point to notes of the source that are not given here.
# B1: ScFv3: fully human anti-ERα36 single chain antibody, SEQ ID NO: 7 (protein)
# scFv: QSVLTQPASVSGSPGQSITISCTGTSSDVGGYNYVSWYQQHPGKAPKLMIYDVSKRPSGVSNRFSGSKSGNTASLTISGLQAEDEADYYCSSYTSSSTLVFGGGTKLTVLGSGGSTITSYNVYYTKLSSSGTEVQLVQSGGGVAQPGRSLRLSCAASGITFNSYGMHWVRQAPGKGLEWVAVMPYDGSNEYYADSVKGRFTISRDNSKNTLYLQMNSLRAEDTAVYYCAKGSGMVQLWADAFDVWGQGTMVTVSSAS
# modifications: scFv3
# B2: ScFv2: fully human anti-ERα36 single chain antibody, SEQ ID NO: 5 (protein)
# scFv: QSALTQPASVSGSPGQSITISCTGTSSDVGGYNYVSWYQQHPGKAPKLMIYDVSKRPSGVSNRFSGSKSGNTASLTISGLQAEDEADYYCSSYTSSSTLVFGGGTKLTVLGSGGSTITSYNVYYTKLSSSGTQVQLLESGAEVKKPGASVKVSCKASGYTFTAYYMHWVRQAPGQGLEWMAMIDPSGSITSYAQKFQGRVTMSRDTSTSTLYMELSSLRSDDTAVYYCARDLKEGFSVPGAFDIWGQGTMVTVSSAS
# modifications: scFv2
# B3: ScFv6: fully human anti-ERα36 single chain antibody, SEQ ID NO: 13 (protein)
# scFv: EIVMTQSPGTLSLSPGERATLSCRASQSVDSNFLAWYQQRPGQAPRLLIYGVSSSATGIPDRFSGSGSGTDFTLSIDRLEPEDFAVYYCQQYGSSPTFGGGTKLEIKRSGGSTITSYNVYYTKLSSSGTQVQLQESGGGLVQPGRSLRLSCAASGFTFDDYAMHWVRQAPGKGLEWVSGISWNSGSIGYADSVKGRFTISRDNAKNSLYLQMNSLRAEDTAVYYCARSGDYGAFDIWGQGTMVTVSSAS
# modifications: scFv6
# Legend:
# [1] = target: T1, ERα36 (Homo sapiens, UniProt P03372); assay: ELISA of re-natured ScFv binding to ERα36
# T1 construct: made in house; host or cells: chemical synthesis (no expression host)
# T1 sequence (P03372 284-310 isoform P03372-4 limits assumed): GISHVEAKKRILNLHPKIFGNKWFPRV
# Procedure: Streptavidin-coated 96-well plates were washed twice with PBS. Biotinylated ERα36 (final concentration of 20 μg/ml) was added into each testing well. The plates were incubated for 2 h at room temperature and washed three times with PBST. Re-natured ScFv samples (100 μl, S14A1r1, S24A2r2, S33A2r1, S41A3r3, S53A1r1, S66A1r1 and S72A2r1) were added into the testing wells respectively. Each ScFv was diluted five times in five gradients, and two parallel wells were loaded with each ScFv at each gradient. The plates were incubated at 37° C. for 1 h. The plates were washed three times with PBST, followed by addition of 100 μl anti-His-6 mouse monoclonal antibody (1:2000 dilution) per well and 1 h incubation at 37° C. The plates were washed three times with PBST, followed by addition of 100 μl goat anti-mouse-HRP (1:2500 dilution) per well and 1 h incubation at 37° C. The plates were washed six times with PBST, followed by addition of 100 μl OPD to develop under the protection from light. The reactions were terminated by adding 50 μl 2M H2SO4 to each well, and data were collected by microplate reader at 490 nm.
# One positive control and three negative controls were performed in parallel. The positive control used rabbit anti-ER multi-clonal antibody serum in replacement of the ScFv re-natured sample and goat-anti-rabbit-HRP in replacement of goat-anti-mouse HRP.
# [2] = Body weight and mortality of tumor-bearing nude mice during drug administration; format: in vivo, BALB/c-nu nude mice; details: mean ± SD
# Excerpt: (§1) The tested animals were grouped into 7 groups with 7 nude mice in each group. The seven groups are the negative control group treated with human IgG antibody (purchased from Beijing Biosynthesis Biotechnology Co. Ltd.), the positive control group treated with herceptin (provided by Beijing Shenogen pharma group), the multi-clonal antibody test group treated with rabbit anti-ERα36 multi-clonal antibody (provided by Wang, Zhao-Yi group, Creighton University), and the monoclonal antibody test groups treated with human anti-ERα36 monoclonal ScFv1, ScFv3, ScFv4 and ScFv7 respectively.
# (§2) The test groups were administered with the same dose of rabbit anti-ERα36 multi-clonal antibody, human anti-ERα36 monoclonal ScFv1, ScFv3, ScFv4 and ScFv7 respectively (5 mg/kg, 100 μg/dose). The positive control group was administered with 5 mg/kg herceptin (100 μg/dose,), and the negative control group was administered with 5 mg/kg IgG antibody (100 μg/dose).
# Human breast tumor BCAP-37 (estrogen receptor positive, provided by department of pharmacology, Institute of Materia Medica, Chinese Academy of Medical Sciences) was implanted subcutaneously into the armpit of the right forelimb of each tested nude mouse. Diethylstilbestrol was administered by gavage with the dose of 7 μg/day for 9 consecutive days after the implantation. On day 10, the mice were grouped into 7 groups and administered with the corresponding drug via intravenous injection, at a dosing interval of 3-4 days, for 6 consecutive doses. Every 3-4 days, the tumor-bearing mice were weighed and their tumor sizes were measured. Parameters were calculated using the following equations: […]
# [3] = system: Human breast tumor BCAP-37; assay: Tumor growth inhibition in BCAP-37 tumor-bearing nude mice; format: in vivo, BALB/c-nu nude mice
# Excerpt: 49 female BALB/c-nu nude mice (provided by department of laboratory animal science, Peking University Health Science Center) were used in the studies.
# as §1, §2
# Human breast tumor BCAP-37 (estrogen receptor positive, provided by department of pharmacology, Institute of Materia Medica, Chinese Academy of Medical Sciences) was implanted subcutaneously into the armpit of the right forelimb of each tested nude mouse. Diethylstilbestrol was administered by gavage with the dose of 7 μg/day for 9 consecutive days after the implantation. On day 10, the mice were grouped into 7 groups and administered with the corresponding drug via intravenous injection, at a dosing interval of 3-4 days, for 6 consecutive doses. Every 3-4 days, the tumor-bearing mice were weighed and their tumor sizes were measured. Parameters were calculated using the following equations:
# Volume of Tumor in animals of each group (VT): Vt=½×a×b^2, (Equation 1),
# wherein a and b represent the length and width of the tumor, respectively;
# wherein V0 is the volume of tumor before drug administration at the time of grouping, Vt is the volume of tumor at each measurement; the calculation method of V0 is the same as that of Vt;
# wherein TRTV is the arithmetic mean of RTV of the test groups, and CRTV is the arithmetic mean of RTV of the negative control group.
# The tumor bearing mice in each group were terminated after 21 days of observations and drug administrations. The tumors were then excised from the animals, photographed and weighed on 1/10000 analytical balance. The average tumor weights and tumor growth inhibition rates were calculated:
# All experimental data were shown in mean±standard deviation. Groups were compared using statistical t test.
# [4] = ScFv concentration 170.00 μg/ml
# [5] = 5 mg/kg i.v. every 3-4 days, 6 doses
# [6] = BCAP-37 nude mice, 5 mg/kg i.v. every 3-4 days, 6 doses, mean ± SD
# [7] = BCAP-37 nude mice, 5 mg/kg i.v. every 3-4 days, Vt relative to V0, mean ± SD
# [8] = ScFv concentration 235.00 μg/ml
molecule,measurement,setting,value
B1,OD490 Well1,[1]; ScFv concentration 1.44 μg/ml,0.242
same,OD490 Well2,[1]; ScFv concentration 1.44 μg/ml,0.037
same,OD490 Well1,[1]; ScFv concentration 7.20 μg/ml,0.290
same,OD490 Well2,[1]; ScFv concentration 7.20 μg/ml,0.229
same,OD490 Well1,[1]; ScFv concentration 36.00 μg/ml,0.448
same,OD490 Well2,[1]; ScFv concentration 36.00 μg/ml,0.344
same,OD490 Well1,[1]; [4],1.459
same,OD490 Well2,[1]; [4],1.349
same,"Body weights of tumor-bearing nude mice, Day 4 after drug administration",[2]; [5],20.28 ± 0.54
same,"Body weights of tumor-bearing nude mice, Day 7 after drug administration",[2]; [5],20.75 ± 0.31
same,"Body weights of tumor-bearing nude mice, Day 11 after drug administration",[2]; [5],21.24 ± 0.55
same,"Body weights of tumor-bearing nude mice, Day 14 after drug administration",[2]; [5],22.04 ± 0.59
same,"Body weights of tumor-bearing nude mice, Day 18 after drug administration",[2]; [5],23.38 ± 0.46
same,"Body weights of tumor-bearing nude mice, Day 21 after drug administration",[2]; [5],23.62 ± 0.36
same,body weight when grouped,[2]; baseline at the time of grouping,19.94 ± 0.81
same,"Body weights of tumor-bearing nude mice, Before drug administration","[2]; baseline, 5 mg/kg i.v. every 3-4 days, 6 doses",19.94 ± 0.81
same,"Tumor volumes, Day 4 after drug administration",[3]; [6],171.91 ± 73.68^b mm^3
same,"Tumor volumes, Day 7 after drug administration",[3]; [6],302.93 ± 100.01^b mm^3
same,"Tumor volumes, Day 11 after drug administration",[3]; [6],1442.70 ± 406.32^b mm^3
same,"Tumor volumes, Day 14 after drug administration",[3]; [6],1993.02 ± 405.84^b mm^3
same,"Tumor volumes, Day 18 after drug administration",[3]; [6],2859.65 ± 427.16^b mm^3
same,"Tumor volumes, Day 21 after drug administration",[3]; [6],3324.97 ± 460.89^b mm^3
same,"relative tumor volume (RTV), Day 4",[3]; [7],3.61 ± 2.03^b
same,"relative tumor volume (RTV), Day 7",[3]; [7],6.31 ± 2.88^b
same,"relative tumor volume (RTV), Day 11",[3]; [7],30.44 ± 14.49^b
same,"relative tumor volume (RTV), Day 14",[3]; [7],41.87 ± 16.82^b
same,"relative tumor volume (RTV), Day 18",[3]; [7],59.61 ± 20.46^b
same,"relative tumor volume (RTV), Day 21",[3]; [7],69.18 ± 22.85^b
same,inhibition of tumor growth in tumor-bearing mice (in words),"[3]; BCAP-37 nude mice, 5 mg/kg i.v., 6 doses",strongest inhibitory activities
same,"Tumor volumes, Before drug administration","[3]; baseline, BCAP-37 nude mice, 5 mg/kg i.v. every 3-4 days, 6 doses, mean ± SD",50.51 ± 10.12 mm^3
same,tumor sizes at pathological examination (in words),[3]; excised tumors after 21 days,the smallest among the mono-clonal antibody groups
same,Tumor weight,"[3]; excised tumors after 21 days, BCAP-37 nude mice, 5 mg/kg i.v., 6 doses, mean ± SD",2.738 ± 0.344 g
same,Tumor growth inhibition rate (%),"[3]; from average tumor weights after 21 days vs negative control, 5 mg/kg i.v., 6 doses",59.76%
B2,OD490 Well1,[1]; ScFv concentration 1.40 μg/ml,0.095
same,OD490 Well2,[1]; ScFv concentration 1.40 μg/ml,0.096
same,OD490 Well1,[1]; ScFv concentration 7.00 μg/ml,0.138
same,OD490 Well2,[1]; ScFv concentration 7.00 μg/ml,0.121
same,OD490 Well1,[1]; ScFv concentration 35.00 μg/ml,0.343
same,OD490 Well2,[1]; ScFv concentration 35.00 μg/ml,0.359
B3,OD490 Well1,[1]; ScFv concentration 0.38 μg/ml,0.127
same,OD490 Well2,[1]; ScFv concentration 0.38 μg/ml,0.129
same,OD490 Well1,[1]; ScFv concentration 1.90 μg/ml,0.161
same,OD490 Well2,[1]; ScFv concentration 1.90 μg/ml,0.162
same,OD490 Well1,[1]; ScFv concentration 9.40 μg/ml,0.210
same,OD490 Well2,[1]; ScFv concentration 9.40 μg/ml,0.209
same,OD490 Well1,[1]; ScFv concentration 47.00 μg/ml,0.327
same,OD490 Well2,[1]; ScFv concentration 47.00 μg/ml,0.326
same,OD490 Well1,[1]; [8],0.677
same,OD490 Well2,[1]; [8],0.664
